Key:
[1] = target: LgBiT-p62 (Homo sapiens (Human)) (UniProt Q13501); assay: NanoBiT split-luciferase complementation in HeLa cells co-transfected with pLgBiT-p62 and pSmBiT-DDX5; 10 uM AUTAC2-2G for 12 h; luminescence 10 min after start of measurement
[2] = target: LgBiT-p62 (Homo sapiens (Human)) (UniProt Q13501); assay: NanoBiT split-luciferase complementation in HeLa cells co-transfected with pLgBiT-p62 and pSmBiT-DDX5; 10 uM 8-nitro-cGMP for 24 h; luminescence 10 min after start of measurement
[3] = target: LgBiT-p62 (Homo sapiens (Human)) (UniProt Q13501); assay: NanoBiT split-luciferase complementation in HeLa cells co-transfected with pLgBiT-p62 and pSmBiT-DDX5; 10 uM AUTAC4-2G for 12 h; luminescence 10 min after start of measurement
[4] = target: LgBiT-p62 (Homo sapiens (Human)) (UniProt Q13501); assay: NanoBiT split-luciferase complementation in HeLa cells co-transfected with pLgBiT-p62 and pSmBiT-DDX5; 10 uM FBnG for 24 h; luminescence 10 min after start of measurement
[5] = target: LgBiT-p62 (Homo sapiens (Human)) (UniProt Q13501); assay: NanoBiT split-luciferase complementation in HeLa cells co-transfected with pLgBiT-p62 and pSmBiT-DDX5; each of compounds 5 to 33 at 10 uM for 24 h; luminescence 10 min after start of measurement

Measured: emission intensity relative to cells treated with DMSO (times (fold over DMSO-treated cells))

Sequence of SmBiT-DDX5 (P17844 whole entry): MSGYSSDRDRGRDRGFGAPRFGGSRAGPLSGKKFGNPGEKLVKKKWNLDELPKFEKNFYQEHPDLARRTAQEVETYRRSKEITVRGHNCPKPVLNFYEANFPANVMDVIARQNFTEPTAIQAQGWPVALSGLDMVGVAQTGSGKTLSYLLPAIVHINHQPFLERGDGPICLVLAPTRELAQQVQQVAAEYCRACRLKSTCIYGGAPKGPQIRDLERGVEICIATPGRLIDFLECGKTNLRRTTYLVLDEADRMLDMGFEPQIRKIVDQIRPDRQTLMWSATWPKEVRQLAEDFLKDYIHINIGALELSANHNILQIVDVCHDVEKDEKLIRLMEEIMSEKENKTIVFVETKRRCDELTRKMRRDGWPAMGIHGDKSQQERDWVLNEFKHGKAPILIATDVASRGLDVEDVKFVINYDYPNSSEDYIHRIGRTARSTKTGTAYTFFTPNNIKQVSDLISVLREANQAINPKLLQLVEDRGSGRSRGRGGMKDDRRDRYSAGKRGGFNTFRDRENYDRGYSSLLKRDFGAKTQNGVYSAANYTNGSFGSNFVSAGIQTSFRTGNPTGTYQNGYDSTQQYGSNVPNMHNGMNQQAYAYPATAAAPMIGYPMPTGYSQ

SmBiT-DDX5 (from UniProt P17844 1-614) (enzyme)
> 1000: all assays above

Reference: patent EP4692367A1
